Measurements as given in patent publication US20250154287A1 (Pfizer, published 2025).
Each block holds one binder with its values, some of them ahead of it.

Tests used:
[1] = biological target: T1, biotinylated cyno MIGIS-α peptide (cynomolgus monkey); assay: SPR (Biacore T200, 37 C), biotinylated peptide captured, OAA as analyte, 1:1 fit
T1 construct: domain: MIGIS-α

[2] = biological target: T2, biotinylated human MIGIS-α peptide (human, biotinylated); assay: as above
T2 peptide: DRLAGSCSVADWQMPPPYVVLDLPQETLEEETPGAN

[3] = biological target: T1, biotinylated cyno MIGIS-α peptide; assay: SPR, OAA format
[4] = biological target: T2, biotinylated human MIGIS-α peptide; assay: SPR, OAA format
[5] = biological target: T3, human membrane IgA overexpressed on Ramos cells (human); assay: flow cytometry on IgA Ramos cells, OAA format; reference
T3 construct: its MIGIS-α segment is the short form; also called IgA^+ Ramos; human IgA^+ RAMOS cells
T3 sequence (heavy, as listed by the source): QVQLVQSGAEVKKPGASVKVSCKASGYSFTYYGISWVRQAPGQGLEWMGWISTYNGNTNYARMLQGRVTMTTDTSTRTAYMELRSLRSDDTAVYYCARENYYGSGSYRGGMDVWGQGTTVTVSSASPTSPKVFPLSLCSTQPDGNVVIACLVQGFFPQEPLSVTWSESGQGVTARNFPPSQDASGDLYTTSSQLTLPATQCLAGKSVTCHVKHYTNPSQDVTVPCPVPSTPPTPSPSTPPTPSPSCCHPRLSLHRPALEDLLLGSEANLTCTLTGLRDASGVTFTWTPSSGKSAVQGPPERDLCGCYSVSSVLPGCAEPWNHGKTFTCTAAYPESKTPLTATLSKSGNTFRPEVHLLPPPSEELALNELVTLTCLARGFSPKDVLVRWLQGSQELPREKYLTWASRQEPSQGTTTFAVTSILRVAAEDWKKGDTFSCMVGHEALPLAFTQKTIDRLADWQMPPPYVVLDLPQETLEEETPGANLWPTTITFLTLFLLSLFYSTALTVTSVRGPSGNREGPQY

[6] = biological target: recombinant human CD3 epsilon (human, UniProt P07766 23-126, limits assumed); assay: SPR
Sequence of recombinant human CD3 epsilon (P07766 23-126 limits assumed): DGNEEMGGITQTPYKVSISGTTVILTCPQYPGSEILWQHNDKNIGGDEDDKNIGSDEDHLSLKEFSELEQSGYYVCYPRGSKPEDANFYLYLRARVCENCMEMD

[7] = biological target: T3, human membrane IgA overexpressed on …; assay: flow cytometry on IgA+ Ramos cells
[8] = biological target: T4, parental (IgA^-) Ramos cell line, which expresses only cell surface IgM (UniProt P01871 1-474); assay: flow cytometry on parental Ramos cells
T4 construct: whole, on cells; Negative control cells without membrane IgA; also called mIgA negative Ramos cells; parental Ramos
T4 sequence (P01871 whole entry): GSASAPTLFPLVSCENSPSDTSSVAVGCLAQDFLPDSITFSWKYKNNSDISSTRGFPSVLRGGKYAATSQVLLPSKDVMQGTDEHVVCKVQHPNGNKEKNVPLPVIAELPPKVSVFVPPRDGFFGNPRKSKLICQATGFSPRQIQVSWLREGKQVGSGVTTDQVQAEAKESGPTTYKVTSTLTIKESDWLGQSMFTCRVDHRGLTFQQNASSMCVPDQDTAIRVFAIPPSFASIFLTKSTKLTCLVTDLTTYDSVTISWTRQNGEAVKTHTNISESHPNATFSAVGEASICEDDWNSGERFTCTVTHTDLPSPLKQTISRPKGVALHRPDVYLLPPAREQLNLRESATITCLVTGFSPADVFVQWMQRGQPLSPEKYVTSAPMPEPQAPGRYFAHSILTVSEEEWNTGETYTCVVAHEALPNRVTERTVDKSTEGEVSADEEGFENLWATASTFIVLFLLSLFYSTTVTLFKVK

[9] = biological target: T3, human membrane IgA overexpressed on …; assay: flow cytometry, cell binding on IgA+ Ramos cells; fit table under the plot (the text prints 2.9 nM)
[10] = biological target: T3, human membrane IgA overexpressed on …; assay: flow cytometry, cell binding on IgA+ Ramos cells; fit table under the plot, unit from the y axis (gMFI minus secondary only)
[11] = biological target: T5, Short MIGIS-α form (human); assay: crystal structure
T5 construct: fused to the N-terminus of the VH of Fab-0027 in the crystal; also called Short Form
T5 peptide: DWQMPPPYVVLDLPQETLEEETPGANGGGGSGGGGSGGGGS

[12] = biological target: T6, Long MIGIS-α form (human); assay: crystal structure
T6 construct: fused to the N-terminus of the VH of Fab-0027 in the crystal; also called long MIGIS-α peptide; Long Form
T6 peptide: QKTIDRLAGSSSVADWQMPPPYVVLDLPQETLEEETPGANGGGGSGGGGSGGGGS

[13] = biological target: T7, membrane IgD on human IgD^+ (IgA^-) primary B cells (human, UniProt P01880 1-430); assay: flow cytometry on primary human B cells, gate IgD+ CD19+, MFI minus background
T7 construct: whole, on cells; Negative control cell population without membrane IgA; also called CD19^+, IgD^+ B cell populations; IgD cells
T7 sequence (heavy, looked up): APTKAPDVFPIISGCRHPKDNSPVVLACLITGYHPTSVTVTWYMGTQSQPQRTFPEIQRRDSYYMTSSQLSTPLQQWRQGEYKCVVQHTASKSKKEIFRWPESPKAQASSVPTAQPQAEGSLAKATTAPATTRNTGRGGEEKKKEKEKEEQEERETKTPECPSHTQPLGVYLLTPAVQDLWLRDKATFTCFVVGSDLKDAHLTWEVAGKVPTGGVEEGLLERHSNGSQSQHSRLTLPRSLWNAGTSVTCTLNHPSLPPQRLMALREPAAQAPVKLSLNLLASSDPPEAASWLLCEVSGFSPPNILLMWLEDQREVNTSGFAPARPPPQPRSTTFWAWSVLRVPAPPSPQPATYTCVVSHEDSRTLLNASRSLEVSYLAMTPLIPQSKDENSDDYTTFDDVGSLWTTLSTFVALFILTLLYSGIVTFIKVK

[14] = biological target: T8, human membrane IgA (mIgA), endogenously expressed on primary B cells and DAKIKI cells (human, UniProt P01876 1-398); assay: flow cytometry on primary human IgA+ memory B cells, mean of 3 donors
T8 construct: whole, on cells; also called IgA^+ CD19^+ primary B cells
T8 sequence (P01876 whole entry): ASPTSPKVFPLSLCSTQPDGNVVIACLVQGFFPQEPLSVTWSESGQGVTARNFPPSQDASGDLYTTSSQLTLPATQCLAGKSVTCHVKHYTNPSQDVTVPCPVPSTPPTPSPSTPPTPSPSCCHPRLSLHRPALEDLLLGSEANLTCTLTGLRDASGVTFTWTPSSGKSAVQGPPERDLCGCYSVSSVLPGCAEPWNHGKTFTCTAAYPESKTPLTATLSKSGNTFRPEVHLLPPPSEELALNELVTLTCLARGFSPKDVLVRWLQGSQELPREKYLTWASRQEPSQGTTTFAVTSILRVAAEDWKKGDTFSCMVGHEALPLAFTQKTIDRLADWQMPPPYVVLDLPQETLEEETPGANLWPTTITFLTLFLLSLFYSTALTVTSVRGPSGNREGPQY

[15] = biological target: cynomolgus monkey membrane IgA (cynomolgus monkey); assay: cell-based or functional assay
[16] = biological target: T8, human membrane IgA (mIgA), endogenously …; assay: cell-based or functional assay
[17] = biological target: T3, human membrane IgA overexpressed on …; assay: flow cytometry on human IgA+ Ramos cells, mean of 3 experiments
[18] = biological target: T8, human membrane IgA (mIgA), endogenously …; assay: cell-based or functional assay; remark: listed apart in the source
[19] = biological target: T8, human membrane IgA (mIgA), endogenously …; assay: cell-based or functional assay; remark: listed apart in the source
[20] = biological target: T4, parental (IgA^-) Ramos cell line, which …; assay: flow cytometry on parental Ramos cells (IgM only), MFI minus background

Kd [1]: 11.9 nM | koff [1]: 0.0132 s⁻¹ | kon [1]: 1.1e+06 M⁻¹ s⁻¹ | Kd [2]: 10.7 nM | koff [2]: 0.0316 s⁻¹ | kon [2]: 2.96e+06 M⁻¹ s⁻¹ | fold improved binding over GBT-IgA-0070 (H05 OAA) [3]: ~5 fold | fold improved affinity over GBT-IgA-0070 (H05 OAA) [4]: ~20 fold | Fold Diff EC50 (OAA format in IgA Ramos by FLOW) [5]: 1 fold
B1: GBT-IgA-0071 (T18 in one armed format) (antibody)
heavy: not shown
chain: EPKSSDKTHTCPPCPAPEAAGAPSVFLFPPKPKDTLMISRTPEVTCVVVDVSHEDPEVKFNWYVDGVEVHNAKTKPREEQYNSTYRVVSVLTVLHQDWLNGKEYKCKVSNKALPAPIEKTISKAKGQPREPQVYTLPPCREEMTKNQVSLSCAVKGFYPSDIAVEWESNGQPENNYKTTPPVLDSDGSFFLVSKLTVDKSRWQQGNVFSCSVMHEALHNRYTQKSLSLSPGK
light: not shown
notes: One-armed antibody; also called T18 OAA

binding result [11]: binds | binding result [12]: binds
B4: Fab of GBT-IgA-0027 (Fab-0027) (Fab, V domains shown)
VH: QVQLVESGGGVVQPGRSLRLSCAASGFTFSSYGMHWVRQAPGKGLEWVAVISYDGSNKYYADSVKGRFTISRDNSKNTLYLQMNSLRAEDTAVYYCAKLYGGNPKDTIYHWGRGTLVTVSS
VL: not shown
notes: Fab; constant parts not specified; antigen and Fab are written here as two molecules; also called VH-Fab-0027; T18 Fab

binding result [13]: no binding (tested: about 500 nM) | EC50 [14]: 49.8 nM | EC50 [17]: 40.5 nM | binding result [20]: no binding (tested: about 300 nM)
B5: GBT-IgA-1602, anti-MIGIS-α/CD3 bispecific antibody (bispecific antibody)
heavy 1: not shown
light 1: not shown
heavy 2: EVQLVESGGGLVQPGGSLRLSCAASGFTFSDYYMTWVRQAPGKGLEWVAFIRNQARGYTSDHNPSVKGRFTISRDNAKNSLYLQMNSLRAEDTAVYYCARDRPSYYVLDYWGQGTTVTVSSASTKGPSVFPLAPSSKSTSGGTAALGCLVKDYFPEPVTVSWNSGALTSGVHTFPAVLQSSGLYSLSSVVTVPSSSLGTQTYICNVNHKPSNTKVDKKVEPKSCEKTHTCPPCPAPEAAGAPSVFLFPPKPKDTLMISRTPEVTCVVVDVSHEDPEVKFNWYVDGVEVHNAKTKPREEQYNSTYRVVSVLTVLHQDWLNGKEYKCKVSNKALPAPIEKTISKAKGQPREPQVYTLPPSREEMTKNQVSLTCEVKGFYPSDIAVEWESNGQPENNYKTTPPVLDSDGSFFLYSKLTVDKSRWQQGNVFSCSVMHEALHNHYTQKSLSLSPGK
light 2: DIQMTQSPSSLSASVGDRVTITCTSSQSLFNVRSQKNYLAWYQQKPGKAPKLLIYWASTRESGVPSRFSGSGSGTDFTLTISSLQPEDFATYYCKQSYDLFTFGGGTKVEIKRTVAAPSVFIFPPSDEQLKSGTASVVCLLNNFYPREAKVQWKVDNALQSGNSQESVTEQDSKDSTYSLSSTLTLSKADYEKHKVYACEVTHQGLSSPVTKSFNRGEC
Primary cell killing, potency EC50 (nM), cyno memory membrane IgA+ [15]: 0.19 nM | Primary cell killing, potency EC50 (nM), cyno soluble plasma cells (IgA secreting) [15]: 1.34 nM | Primary cell killing, potency EC50 (nM), human memory B cells (membrane IgA+) [16]: 0.73 nM | Primary cell killing, potency EC50 (nM), human plasma cells (IgA secreting) [16]: 1.67 nM | EC50 (nM), IgA producing B cell kill [18]: 1.5 nM | EC50 (nM), IgA^+ memory B cell kill [19]: 0.587 nM

The next lines start with the binder.

B2: BMD-IgA-1156 (anti-CD3 binding arm h2B5v6) (antibody, V domains shown)
VH: EVQLVESGGGLVQPGGSLRLSCAASGFTFSDYYMTWVRQAPGKGLEWVAFIRNQARGYTSDHNPSVKGRFTISRDNAKNSLYLQMNSLRAEDTAVYYCARDRPSYYVLDYWGQGTTVTVSS
VL: DIQMTQSPSSLSASVGDRVTITCTSSQSLFNVRSQKNYLAWYQQKPGKAPKLLIYWASTRESGVPSRFSGSGSGTDFTLTISSLQPEDFATYYCKQSYDLFTFGGGTKVEIKR
notes: Only the anti-CD3 chains are tied to this name
Kd [6]: 17 nM

B3: GBT-IgA-0032 (T25) (antibody, V domains shown)
VH: QVQLVESGGGVVQPGRSLRLSCAASGFTFSSYGMHWVRQAPGKGLEWVAVISYDGSNKYYADSVKGRFTISRDNSKNTLYLQMNSLRAEDTAVYYCAKLYGGNPKDTIYHWGRGTLVTVSS
VL: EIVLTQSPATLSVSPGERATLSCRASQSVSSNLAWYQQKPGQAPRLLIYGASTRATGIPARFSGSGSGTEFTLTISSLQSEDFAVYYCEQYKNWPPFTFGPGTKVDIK
EC50 [7]: 2.9 nM | fold MFI compared to H05 [7]: ~4 fold | binding result [8]: no binding | EC50 [9]: 2.99 nM | Top [10]: 33700 gMFI
